How the values were obtained:
oxytocin = oxytocin (UniProt P01178); test: small-molecule microarray
[1] = molecular target: SARS-CoV-2 papain-like protease (PLpro) (SARS-CoV-2)

Sequence of oxytocin (P01178 whole entry, looked up): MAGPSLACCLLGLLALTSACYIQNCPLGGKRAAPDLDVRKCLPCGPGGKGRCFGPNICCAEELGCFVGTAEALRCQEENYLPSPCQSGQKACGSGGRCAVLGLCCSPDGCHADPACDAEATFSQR

Row | Substance | SNR (signal-to-noise ratio on the microarray) (oxytocin) | IC50 of inhibition of PLpro enzymatic activity (dose-response curve, Figure 5C) [1] [µM]
1 | SARS-CoV-2 papain-like protease (PLpro) (enzyme) | 6.52 | 
2 | SARS-CoV-2 main protease (Mpro) (enzyme) | 5.53 | 
3 | oxytocin (from UniProt P01178 20-28) (peptide) |  | 4.92
